The source of these data is patent publication US20210106703A1, “RADIOIMMUNOCONJUGATES IN COMBINATION WITH OTHER DRUGS AS TREATMENT AGAINST NHL” (Nordic Nanovector ASA, priority 2017, published 2021).

In one test the test system is Ramos cells. In words: Proliferation study with Wee-1/Myt-1 inhibitors and ^177Lu-lilotomab. It counts as cell-based, human. The following applies: inhibitor 1 μM + ^177Lu-lilotomab 6 MBq/mL (RIT) for 18 h, 6 days after start. On the procedure:
(§1) Cells were treated for 18 h with 1 μM of the selective Wee-1 kinase inhibitor MK-1775 (Selleckchem, Houston, USA) or of the dual Wee-1/Myt-1 inhibitor PD-166285 (EMD Merck Millipore/Calbiochem, Molsheim, France) alone or in combination with 6 MBq/mL, 2 MBq/mL and 0.5 MB/mL of ^177Lu-lilotomab for Ramos, Rec-1 and DOHH2 cells respectively. At different times after start of incubation, proteins were extracted to measure the CDK1 phosphorylation levels, in parallel, proliferation was determined and at 18 h and 24 h after start of incubation, the percentage of cells in G2/M was assessed (experiments were performed three time except the cell cycle analysis).
(§2) The activity used for the treatment with ^177Lu-lilotomab was chosen to decrease the proliferation to about 50% for the three cell lines compared with non-treated cells.
(§3) Inhibition of G2/M cell cycle arrest radiosensitises radioresistant Ramos model. The Bliss independence mathematical model was next used to investigate the role of MK-1775 or PD-166285 on the response to ^177Lu-lilotomab. A theoretical therapeutic efficacy was calculated for the two combinations (MK-1775 or PD-166285) in the three cell lines. And the comparison between the experimental and the theoretical curves was done.
(§4) Theoretical efficacyRIT+inhib=EfficacyRIT+Efficacyinhib−(EfficacyRIT×Efficacyinhib)

For the next test, the system named is Rec-1 cells. The test is described as above. The following applies: Rec-1, inhibitor 1 μM + ^177Lu-lilotomab 2 MBq/mL for 18 h, versus either alone. It counts as cell-based, human. On the procedure:
as §1, §2, §3, §4

Test [1] relates to CD3-/CD20+ cells from biopsies of patients with DLBCL or FL. The following applies: 4 patient biopsies, 18 h exposure, day 4. As to the method: Frozen human biopsies from patients with DLBCL or FL were obtained from CHU de Montpellier Plateforme CRB/Hemodiag. Typically, cells were defrosted and grown at 0.5×10^6 cells/mL in 12-well plates at 37° C. in a humidified atmosphere of 95% air/5% CO2. Culture medium consisted of RPMI medium supplemented with 20% heat-inactivated fetal bovine serum, antibiotics ([…] penicillin and 100 μg/ml streptomycin), 50 ng/mL CD40L (His tagged; R&D system) and 5 μg/mL anti-his-tag antibody (R&D system, Abingdon, UK). After 5 h, they were treated with increasing amount of ^177Lu-lilotomab (0 to 6 MBq/mL) combined or not with MK-1775 or PD-166285 (1 μM) for 18 h. At the end of incubation, 50% of cells were analyzed by flow cytometry and the remaining cells were collected, centrifuged and washed twice with medium before being seeded in 12-well plates for 3 days more. After 3 days, cells were collected and analyzed by flow cytometry. Live/Dead fixable dead cell stain (Fisher scientific), anti-CD45, CD3, CD19, CD20 and CD10 mAbs (BD Pharmigen, Le pont de Claix, France) and anti-Kappa mAb (DAKO, Les Ulis, France) were used and analyzed by flow cytometry to determine quantity and proportion of tumor and non-tumor cells alive.

For test [2], the system named is CDK1 and its phosphorylations, p345-Chk1, Wee-1, Myt-1, CDK7 in Rec-1 cells. In words: Protein expression by Western blot. Type of test: cell-based, human. On the procedure: Protein expression was assessed in 1×10^6 Ramos, DOHH2 or Rec-1 cells/mL grown in 12-well plates and exposed for 18 h to 0 and 6 MBq/mL of ^177Lu-lilotomab. Cells were harvested at 0, 2 h, 18 h, 1 d, 2 d and 3 d of RIT. At each time point, cells were rinsed and incubated in RIPA buffer (Santa Cruz) at 4° C. for 30 minutes. Cells were centrifuged and supernatant (containing proteins) were collected. Proteins were electrophoresed through SDS-PAGE using 12% poly-acrylamide gels and electrotransferred onto nitrocellulose membranes. Blots were incubated with anti-CDK1, anti-p-CDK1(Tyr15) (clone 10A11), anti-p-CDK1(Thr14), anti-p-CDK1(Thr161), anti-CDK7, anti-Wee-1 (clone D10D2), anti-Myt-1, anti-p-CHK1 (Ser345) and anti-human GAPDH (1/1000, Cell Signaling Technologies, Leiden, The Netherlands) primary antibodies. Blot were washed and incubated with horseradish peroxidase-conjugated anti-mouse Ig (115-036-072, Jackson ImmunoResearch) or with horseradish peroxidase-conjugated anti-rabbit Ig (7074, Cell Signaling). Signal detection of immunoblots was carried out using the enhanced chemiluminescence protocol according to the manufacturer's instructions (Clarity™ Western ECL blotting substrates, 1705061, BioRad). PXi analyser (Ozyme) was used to measure levels of protein expression.

With `C=CCn1c(=O)c2cnc(Nc3ccc(N4CCN(C)CC4)cc3)nc2n1-c1cccc(C(C)(C)O)n1` [MK-1775], the “Proliferation (treated/untreated cells)” value in the test on Ramos cells was around 10%; in the test with Rec-1 cells it was “statistically reduced the proliferation”.

B1: Lutetium-177 [^177Lu]-lilotomab satetraxetan (conjugate, chains of the INN, looked up)
VH: EIQLQQSGPELVKPGASVKVSCKASGYSFTDYNMYWVKQSHGKSLEWIGYIDPYNGDTTYNQKFKGKATLTVDKSSSTAFIHLNSLTSEDSAVYYCARSPYGHYAMDYWGQGTSVTVSS
VL: DIVMTQSHKLLSTSVGDRVSITCKASQDVSTAVDWYQQKPGQSPKLLINWASTRHTGVPDRFTGSGSGTDYTLTISSMQAEDLALYYCRQHYSTPFTFGSGTKLEIK
modifications: 177Lu satetraxetan chelator conjugate
As for B1, the “Proportion of tumor cells” value in test [1] is given as “reduced the proportion of tumor cells”. The “Level of phosphorylated CHK1 (Ser345)” value in test [2] (Rec-1) is “remained stable until 18 h before progressively decreasing”. Also, in test [2] (Rec-1, 6 MBq/mL for 18 h), the “Activating pThr161 CDK1 phosphorylation” value is recorded as “undetectable” and the CDK1 level result is given as “quite stable”. Besides, the “Expression of Myt-1” value in test [2] (Rec-1, 18 h after treatment) is on record as “decreased”. Also, the “Expression of Wee-1” value in test [2] (Rec-1, between 18 and 48 h) was “comparable in control and treated”. Besides, the “Levels of CDK7” value in test [2] (Rec-1, compared with Ramos cells) is “stable or increased”.
